Source: a protein production outcome set (Wang et al. 2014)

Test: label from the status in PepcDB records

Sequence	protein production
MGRKSNRAKEKKQRRLEERAAMDAVCAKVDAANKLEDPLSAMPVFKKYDRNGLNLQIECKRVTALSPDTVEWAYELTRANMQTLYEQSEWGWKEREKREEMKDERAWYLLARDADSTPLAFSHFRFDVECGDEVLYCYEVQLESKVRRKGLGKFLIQILQLIANSTQMKKVMLTVFKHNHGAYQFFREALQFEIDETSPSMSGCCGEDCSYEILSRRTKYGEVSGHAHGGHCGGCCH	not failed
MSEPIPPFRYAPIVCSEQSTIVAEFVPEASGVREAGYQSEAELEAAFIKQLQGQAYEYLPITSEAALLANLRRQLEKLNKVTLSDAEWEGFFSTCIAGAHDGIVEKTARIQENHVQVLKRDDGTIKNMCLLDKVNIHNNTLQVMNQYAVEGARANRYDVTVLVNGLPMVHVELKRRGVDIREAFNQINRYQRDSFWAGSGLLDYVQLFVISNGTLTKYYSNTVRAGHVEEQSNKRSKSKTSNSFSFAIWWADAKNQPITELTSFTKTFFAKHSLLNVLTKYCVFNAKRKLLVMRPYQIVAAERILQRIVIATHQQQLGTVAAGGYIWHTTGSGKTLTSFKVAQLACGLGVIDKVLFVVDRKDLDYQTMREYESFQKGAANSNTSTAVLQRQLEDSDVHIIITTIQKLSRFVAKHKQHPVYGAHVVVIFDECHRSQFGDMHTKITRAFQRYHLFGFTGTPIFAENAGSTQNPMRRTTQQTFGDTLHTYTIVDAINDKTVLPFRIDYINTIKSQPNIKDKKVAAIDTERALLAPERIRQIVSYIREHFDQKTKRASIYRHEGQRLAGFNSLLATASIDAAKRYYAELMAQQKELPEARRLKVGLIYSVAANEGGGDGGLGEEEFETEGLDQESRNFLEAAIQDYNALFGTSFDTSADKFQNYYKDVSERLKKRKLDILIVVNMFLTGFDATTLNTLWVDKPLKAHGLIQAYSRTNRILNSVKSYGNIVSFRNLEQETNEALALFGNKDAKGIVLLRPYAEYYKQYEERVGELMAAFPLGKAIVGEAAQKAFITLFGSILRLKNILTAFDDFGGQEILTEREFQDYQSLYLNLYAEFRSASAAEKESINDDVVFEIELIKQVEINVDFILLLVEQYVKKKGTGEDKDIRATIERAIHSSPSLRNKKELIEQFVDAVSMKAKVDAQWQAFVAVKQSQELEGIIAEENLNAEAAREFIGNAFRDGGIPAMGTAITKVLPPVSRFSKNNGHAAKKQAVLDKFATFFERYFGLV	failed
MAIETAILEKIKQYQTIIIHRHQRPDPDCIGSQLALRAILRASFPEKTVVAVGKHYPGFDWMGQADQEVSDDTYHQALVIVVDTANQPRVDDERWQTGAAVIKIDHHPNDDAFGDLQWVLPQASSTSEIIYDWFEANHADLTMPDDAARLLYAGIVGDTGRFMYPATSANTFAVAGKLLAYDFSMTAVNQAEDEISPEMARLSAYAYQNLEILPSGAAYLKLTDEIVESFGLAASDSTSAIVPLPGKITSVVAWAIFVESKDKTFRVRLRSKGPSINELAKRHGGGGHALASGAAAKDQAEIDQVIHELDQLVADTKGENELEHHHHHH	not failed
MFERFTEKAIKVITLAQEEARRLGYNFFGTEHILLSLIGEGTGIAAKVLKSMGINLKDARVEVEKIIGRGSGFVVVEIPFTPRKACAGFVTRGSSTTRHKGIAVRVLEILGADPSNIRTQVNAPILVNSQQALVAEVMETATWQVGNTRRGKLDPVVGRQPQIKRVVQILARRTCRNNACLIGKPGVGKRAIAEGIAQRIASGDVPETIKGKMNVAGNCGWNEIRWRSRGKIEEVYGQSDDIILFIDEMHLLIGAGAVEGAIDAANILKPALERCELQYRKHIENDPALERRFQPVKVPEPTVEEAIQITTVLAKGKEVNKADNEAEEGRPTVTEADNEAE	failed
MLITISDIAWGIALSIWVAIVVLYISKLISKKFGAYVTRKAIHMLGGGIVAVLSPFVFNSPLVPIITSYLIMAYLITIRVLRKEMSWFMDKENLGEVFFAFSFGTVLLVMFILDPNYWTSTDLIYVAVLPLIFMSFGDGITGIIRNFVYKRRVKGLWGSMGMLIFCATVGYFVLNIPGLIAGILATVAELLPYIDDNISVPFLSFLFLYLFVRVL	failed
MGVVRPAEQQSRIAARRVALLEKVDYRLAETPAEREAIYRLRYRAYLKEGAIDANSSGIVTDRYDDLPNSWIFGVFYEGELSSSLRITVASPDHHDCPSMDVFPDFLQPWLAEGKVIVDPTRFVADPTSANRLPELPYLTLRLAYVSCEYFNADIGLASVRTEHQAFYRRVMMRS	failed
MVAYPGPMPRSPSPGQTPDAPTSGGGSTDSTRQRIVAAAKEEFARHGIAGARVDRIAKQARTSKERVYAYFRSKEALYAHVAERETTALIEATQLDPADLPGYAGILFDHFAARPDHYRLITWGRLELAESADNTSGPLQATIAGKLDKLRDAQRIGLLDPAWDPVDVLALINQIAMTWAGQPEIAAAAADQAVDPSVTARRAALVTAVEHMFPRPDRDQRPNRLT	not failed
METRYNLKSPAVKRLMKEAAELKDPTDHYHAQPLEDNLFEWHFTVRGPPDSDFDGGVYHGRIVLPPEYPMKPPSIILLTANGRFEVGKKICLSISGHHPETWQPSWSIRTALLAIIGFMPTKGEGAIGSLDYTPEERRALAKKSQDFCCEGCGSAMKDVLLPLKSGSDSSQADQEAKELARQISFKAEVNSSGKTISESDLNHSFSLTDLQDDIPTTFQGATASTSYGLQNSSAASFHQPTQPVAKNTSMSPRQRRAQQQSQRRLSTSPDVIQGHQPRDNHTDHGGSAVLIVILTLALAALIFRRIYLANEYIFDFEL	failed
METPYHQRWLAFPDAVSSYRPLESRLAGTSRATADNRTPCTGRLGTPRVFLMATDDVSKAYSSPTFDAEALLGTVISAEDPDRVLIEPWATGVDGVILDVGSGTGRWTGHLASLGHQIEGLEPATRLVELARQTHPSVTFHHGTITDLSDSPKRWAGLLAWYSLIHMGPGELPDALVALRMAVEDGGGLLMSFFSGPSLEPMYHPVATAYRWPLPELAQALETAGFQVTSSHWDPRFPHAYLTAEASLEHHHHHH	not failed
MPSHTDENWELAIQTPAITDRSLAAGLAYAMGSRVNGISFDAATGLLMGKVRGTGPQPYSTSAKLVRKPSGWSCTVGICNCPVRKDCKHVAALLFTAEDHPTIRAQLLSQAPGIQTSRVGSGQQGGSARPAWEQALNRLITKPGTAPSAAGIPLALQFEVEEPAAHFSYTGRRDPMRSVRQLKARPVMMGAKGKWIRGDVSWNNLSYVSFRREFNEVHVEWLQTFLAAHGSSNGRQQPSGAMWLSLNDFAAKNLWTLLAEATKAGIPLIHSAGSEPVRVETQPAVVGLSLARLATDPDTAKHEAPDGGLQLAPSVTLGGEAVDPGSVGFLGKPANGIFFTHSGDSLPGVPQQKNLITLAPMEGGISDELLEFVMDGDTLQIPAEDESRFLTSFYPKLRQSTPVQAADESVELPTLAVPTLSLLANYGNDHKVRLHWEWHYKSGTLVTSQPLWRHPDDRGYRDDLEEARILESLGRPWDVVPALAESATGGWGAPRIAASAELSGLDTLAFTEEVLPALKDLPDVVVETSGDIADYREAAEAPVVSISTKETASGDWFDLGIVITLEGEPVSFAAVFSALAAGMSRMLLPSGAYFSLDLPELHQLRALIDEARSLQDNPDNKDGTLQISRFQAGLWDELAQLGIVDEQAAAWREAVGGLLDDGVTGLPLPAGLNAELRPYQLEGFNWLSFLYKHSLGGVLADDMGLGKTVQAIALICAAKDLAAETAAAAQGDASEVVPRAPFLVVAPTSVVSNWAAEAQRFAPGLVVRTVGETFAKSGMAPAEALAGADVVITSYALFRIDYDAYASFQWAGLMLDEAQFVKNHQSKAYQCARKLPARFKLAITGTPLENNLMEFWALTSIVAPGLFPSPKRFAENYQKPVEKNGDSAQLGKLRRRVRPLMMRRTKEQVIKDLPPKQEQILEVVLNPRHQKVYQTHLQRERQKILGLIDDVNKNRFTIFQSLTLLRQLSLDASLVDSSLSGVRSSKLDVLFEQLEDLISEGHRALIFSQFTGFLGKVRERLDAEGVEYCYLDGSTRNRGDVVSEFKNGAAPVFLISLKAGGFGLNLTEADYVFLLDPWWNPASEAQAVDRTHRIGQARNVMVYRLVAKDTIEEKVMALKAKKSQLFADVMEGDALAGGSLTADDLAALFAE	failed
ASATETNTAPSADTQAPKPVNTVTSDVDCSVSAAWGLYKFNQKSNFSAEFEMPESVKAGTGFDALIKIKDISVSNDNLSGYKNAKLTKSSIRINVGKNVKLDGNQPGLSLSNGVLSINDHLKASLEGNSLRISAAPITVRLQALTEGTLTFIPEKTILTNTASVDGYTANTTCTTNADKPFATVKVDPADGLTITAPESASIKQDVQITATVPEKLNEKMDGKVQFFVNHIAAGDPVPVTEDNKASTSIIFDTSGSKTITARFIDAEGYNPAPDGETIIPVVTELDTKKPEDTDSYTGLINGSATSLLKPAKVMPGEKVSVSASLLPNKAPIRVYEIGINAPEDVKYIDGTGKTNYSSKLATTGSVFSSPGSGYYDPEWKNESKKPNESYRGFHSDTSYSVVDTSPQTVSAEFEIPKTLAPGIYMFQMGVYKYSNSLKDLVSIPETAFEIAGPDLPALPERKIKPQPEETPEVSDGSSTAKLVKSP	not failed
MEAVLNELVSVEDLKNFERKFQSEQAAGSVSKSTQFEYAWCLVRSKYNEDIRRGIVLLEELLPKGSKEEQRDYVFYLAVGNYRLKEYEKALKYVRGLLQTEPQNNQAKELERLIDKAMKK	not failed
MASHELDYRILGESMQTVEIELDPGETVIAEAGAMNYMTGDIRFTARMGDGSDGSLLGKLWSAGKRKLGGESVFMTHFTNEGQGKQHVAFAAPYPGSVVAVDLDDVGGRLFCQKDSFLCAAYGTRVGIAFTKRLGAGFFGGEGFILQKLEGDGLVFVHAGGTLIRRQLNGETLRVDTGCLVAFTDGIDYDVQLAGGLKSMLFGGEGLLLTTLKGSGTVWLQSLPFSRLAGRIYDATFRAREEVRTNNG	not failed
MVNTRTRMSAIVATLGLVGSLALATASADESRTSGSAAQIALTEVARAQNPTAGAAGPQDTVWIAERAGTVRVLGDDGLGEPVLDISDETTTDGERGLLGLAFDERFAHLYLSYTDLEGTSTVDEFAVQDGTVREDTRRTVLTQEQPESNHNGGAITFGPDGYLYIALGDGGGGGDPQGNGQKLDTLLGKLLRIDPQGGDPYAIPEDNPFADDPDARGEIWSYGLRNPWRFSFDAGSGDLLIGDVGQSDWEEIDWAPASSPGGENYGWSQMEGTHPFRGGTEPANHVPPIHEYDRTGLGCSVTGGYVYRGEAVPGLAGQYVYSDYCDGTLRSLEIEDGRVTGEHDLGVNGGEVVSFAQDGDGELYVLAIGGTVSRVDPA	failed
MSVLDISIIIANYNTEEFLRNCLNSIKSTVKNVKYEVIVTDNNSKDDSVTMIKNEFPWVKLIESKINGGFAYANNLAIKESSGKYIFLLNTDTVLLKDVIEKMVNYMDENKDVGLLGPKLLNRDMSHQTSVSGFPSFKREFYHIYKLKNILKIPILKKIIVAMSGKIGSKDVEQYMMNFKSIDEPREVQVLVGAALLVRRNVIDKIGMLDERYFMYYEEIDFCYQANKAGFKAVYYPNGEIIHYIGQAATKSRILEHHHHHH	not failed
MEQPMKPTVIITGASSGVGLYGAKALIDKGWHVIMACRNLDKTQKVADELGFPKDSYTIIKLDLGYLDSVRRFVAQFRELGRPLKALVCNAAVYFPLLDEPLWSADDYELSVATNHLGHFLLCNLLLEDLKACPDADKRLIILGTVTANSKELGGKIPIPAPPDLGNFEGFEAGFKKPIAMINNKKFKSGKAYKDSKLCNMLTTRELHRRFHQETGIVFNSLYPGCVADTPLFRNHYSLFRTIFPWFQKNVTKGYVSQELAGERVAMVVADDKFKDSGVHWSWGNRQQAGREAFVQELSEQGSDAQKAQRMWDLSEKLVGLV	failed
MSSSTSQDFVSRPVIKKVFAKLQKEGDGAVVRRGISRSEQKLLDPFLMLDEFSVSPPAGFPDHPHRGITHQDFKGHKGTIYAGDVQWMTAGRGIIHSEMPEEEVNKEPNYQELSHSDIPKAEQNGVEVKVIAGESMGIQSPVYTRTPTMFLDFTLQPGAQIHQNVPESWNAFAYILESGEGGGVFSSSNSSPIPAHSVVVFGPGNDGVSVWNKSSSKQLRFVLIAGEPIGEPVVQYGPFVMNTQAEIDMTIEDYHYGKNGFEMAKYWRSQ	failed
